This assay addresses NKG2D on effector cells (NK cells, MNC) (human) (UniProt P26718). In words: cell-based or functional assay.

This is an account of results in patent US20240239902A1.

UniProt P26718, sequence (P26718 whole entry): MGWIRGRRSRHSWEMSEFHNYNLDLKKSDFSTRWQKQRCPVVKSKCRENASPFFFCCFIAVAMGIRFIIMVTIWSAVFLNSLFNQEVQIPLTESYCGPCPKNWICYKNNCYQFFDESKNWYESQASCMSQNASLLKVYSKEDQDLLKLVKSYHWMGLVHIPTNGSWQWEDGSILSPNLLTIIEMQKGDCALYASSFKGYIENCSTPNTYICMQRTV

B1: bispecific antibody [CD20×NKG2D #3] (bispecific antibody, part only; not given: constant regions, Fab-scFv linker, tags, not shown: another chain or arm of the molecule; a dimerising Fc or GST; small tags and cut ends)
VH: QVQLQQPGAELVKPGASVKMSCKASGYTFTSYNMHWVKQTPGRGLEWIGAIYPGNGDTSYNQKFKGKATLTADKSSSTAYMQLSSLTSEDSAVYYCARSTYYGGDWYFNVWGAGTTVTVSS
VL: QIVLSQSPAILSASPGEKVTMTCRASSSVSYIHWFQQKPGSSPKPWIYATSNLASGVPVRFSGSGSGTSYSLTISRVEAEDAATYYCQQWTSNPPTFGGGTKLEIK
scFv: QVQLVQSGAEVKKPGASVKVSCKASGYTFTSYGISWVRQAPGQGLEWMGGIIPIFGTANYAQKFQGRVTITADESTSTAYMELSSLRSEDTAVYYCAKDLYDYVWGSYRPNWYFDLWGRGTLVTVSSGSASAPKLEEGEFSEARVSSELTQDPAVSVALGQTVRITCQGDSLRGYYASWYQQKPGQAPVLVTYGNNKRPSGIPDRFSGSSSGNTASLTITGTQAEDEADYYCNSRDNNGNFVIFGGGTKLTVL
With B1, the maximum lysis, CD19-DE mediated ADCC against GRANTA-519 with MNC, in combination with the bsAb (4 h 51Cr release) stood at 24.5%.
